Experimental data reported in US6713294B1, “DNA glycosylases and their use” (priority 1996, dated 2004).

Columns and labels:
Format in all cases: biochemical
[1] = test system: [^3H]thymine-labelled DNA; assay: Release of [3H]thymine from ds or ss labelled DNA; settings: 10 μM, 10 min, 0 = below detection limit; for T-ds, pmol excised per min per mg protein: double-stranded thymine DNA; for T-ss, pmol excised per min per mg protein: single-stranded thymine DNA
Experimental: (§1) To test enzymatic substrate specificities, 250 ng purified human “wild type” UDG (UNGΔ84), UNGΔ84Tyr147Ala or UNGΔ84Asn204Asp, were mixed with 200 ng ds- or ss-[^3H]cytosine-labelled DNA (150 mCi/mmol), or ds- or ss-[^3H]thymine-labelled DNA (100 mCi/mmol) in 10 mM NaCl, 20 mM Tris-HCl (pH 7.5), 1 mM EDTA, 1 mM dithiothreitol and 0.5 mg/ml bovine serum albumin (final concentrations) in 20 μl separate reactions. The final concentrations of the [^3H]cytosine-DNA (C) and [^3H]thymine-DNA (T) substrates were 6.5 μM and 10 μM, respectively. Release of radioactivity as a function of time was measured at 37° C. These conditions are later referred to as standard conditions. Substrate synthesis and processing of samples for scintillation counting were as described in Krokan and Wittwer (1981) Nucl. Acids Res., 9: 2599-2613. Single-stranded substrate was generated by boiling double-stranded substrate for 10 min, followed by rapid cooling on ice.
(§2) For measuring release of uracil from double-stranded (U-ds) or single-stranded (U-ss) DNA the various mutant enzymes (prepared as described in Example 1 and by analogous site-directed mutagenesis methods and identical expression and purification methods) were incubated with 200 ng ds- or ss-[^3H]dUMP-labelled DNA (500 mCi/mmol, 2 μM final concentration) in 20 μl separate reactions for 10 min under standard conditions as described in Example 1. For measuring release of [^3H]cytosine or [^3H]thymine, assays were performed as described in Example 1 using an incubation time of 10 min. Uracil inhibition was analysed by adding 5 mM uracil (final concentration) to a standard U-ds assay. 0 activity indicates activity below detection limit (10 pmol per mg protein per min) with 100 ng enzyme and 200 ng DNA substrate at standard conditions.

[2] = test system: [^3H]dUMP-labelled DNA; assay: Kinetic parameters on uracil substrate; settings: for Kcat: calculated from Vmax assuming Mr=25000
Experimental: The final concentrations of the [^3H]cytosine-DNA (C) and [^3H]thymine-DNA (T) substrates were 6.5 μM and 10 μM, respectively. Release of radioactivity as a function of time was measured at 37° C. These conditions are later referred to as standard conditions. Substrate synthesis and processing of samples for scintillation counting were as described in Krokan and Wittwer (1981) Nucl. Acids Res., 9: 2599-2613. Single-stranded substrate was generated by boiling double-stranded substrate for 10 min, followed by rapid cooling on ice.
The kinetic parameters were determined using six different substrate concentrations to obtain the Km and Vmax values. Duplicate samples were incubated for 20 min using standard assay buffer conditions and substrates as specified. Km and Vmax were calculated using the computer program Enzpack, version 3.0 after the method of Wilkinson (1961) Biochem. J., 80: 324-332.

[3] = test system: [^3H]dUMP-labelled DNA; assay: Release of uracil from ds or ss [3H]dUMP-labelled DNA; settings: 2 μM, 10 min, 37° C.; for U-ds, pmol excised per min per mg protein: double-stranded uracil DNA, 0 = below detection limit (10 pmol per mg protein per min); for U-ss, pmol excised per min per mg protein: single-stranded uracil DNA, 0 = below detection limit
Experimental: as §1, §2

[4] = test system: [^3H]cytosine-labelled DNA; assay: Release of [3H]cytosine from ds or ss labelled DNA; settings: 6.5 μM, 10 min, 0 = below detection limit; for C-ds, pmol excised per min per mg protein: double-stranded cytosine DNA; for C-ss, pmol excised per min per mg protein: single-stranded cytosine DNA
Experimental: as §1, §2

[5] = test system: [^3H]dUMP-labelled DNA; assay: Uracil inhibition in standard U-ds assay; settings: 5 mM uracil added to standard U-ds assay
Experimental: as §2

Row | Molecule | T-ds, pmol excised per min per mg protein [1] | T-ss, pmol excised per min per mg protein [1] | Km ([2]; U-ds substrate) [µM] | Kcat ([2]; U-ds substrate) [s⁻¹] | Km ([2]; U-ss substrate) [µM] | Kcat ([2]; U-ss substrate) [s⁻¹] | U-ds, pmol excised per min per mg protein [3] | U-ss, pmol excised per min per mg protein [3] | C-ds, pmol excised per min per mg protein [4] | C-ss, pmol excised per min per mg protein [4] | Inhibition 5 mM Uracil [5] [%]
1 | Tyr147Phe: human UDG (UNGΔ84) mutant with Tyr147 replaced by Phe (protein) MGVFCLGPWGLGRKLRTPGKGPLQLLSRLCGDHLQAIPAKKAPAGQEEPGTPPSSPLSAEQLDRIQRNKAAALLRLAARNVPVGFGESWKKHLSGEFGKPYFIKLMGFVAEERKHYTVYPPPHQVFTWTQMCDIKDVKVVILGQDPFHGPNQAHGLCFSVQRPVPPPPSLENIYKELSTDIEDFVHPGHGDLSGWAKQGVLLLNAVLTVRAHQANSHKERGWEQFTDAVVSWLNQNSNGLVFLLWGSYAQKKGSAIDRKRHHVLQTAHPSPLSVYRGFFGCRHFSKTNELLQKSGKKPIDWKEL | 0 pmol excised per min per mg protein | 0 pmol excised per min per mg protein | 0.16 | 20.42 | 0.1 | 39.5 | 3.2 × 10^7 pmol excised per min per mg protein | 6.3 × 10^7 pmol excised per min per mg protein | 0 pmol excised per min per mg protein | 0 pmol excised per min per mg protein | 50
2 | His268Leu: human UDG (UNGΔ84) mutant with His268 replaced by Leu (protein) MGVFCLGPWGLGRKLRTPGKGPLQLLSRLCGDHLQAIPAKKAPAGQEEPGTPPSSPLSAEQLDRIQRNKAAALLRLAARNVPVGFGESWKKHLSGEFGKPYFIKLMGFVAEERKHYTVYPPPHQVFTWTQMCDIKDVKVVILGQDPYHGPNQAHGLCFSVQRPVPPPPSLENIYKELSTDIEDFVHPGHGDLSGWAKQGVLLLNAVLTVRAHQANSHKERGWEQFTDAVVSWLNQNSNGLVFLLWGSYAQKKGSAIDRKRHHVLQTALPSPLSVYRGFFGCRHFSKTNELLQKSGKKPIDWKEL | 0 pmol excised per min per mg protein | 0 pmol excised per min per mg protein | – | – | – | – | 1.3 × 10^5 pmol excised per min per mg protein | 2.6 × 10^5 pmol excised per min per mg protein | 0 pmol excised per min per mg protein | 0 pmol excised per min per mg protein | 75
3 | Asp145Glu: human UDG (UNGΔ84) mutant with Asp145 replaced by Glu (protein) MGVFCLGPWGLGRKLRTPGKGPLQLLSRLCGDHLQAIPAKKAPAGQEEPGTPPSSPLSAEQLDRIQRNKAAALLRLAARNVPVGFGESWKKHLSGEFGKPYFIKLMGFVAEERKHYTVYPPPHQVFTWTQMCDIKDVKVVILGQEPYHGPNQAHGLCFSVQRPVPPPPSLENIYKELSTDIEDFVHPGHGDLSGWAKQGVLLLNAVLTVRAHQANSHKERGWEQFTDAVVSWLNQNSNGLVFLLWGSYAQKKGSAIDRKRHHVLQTAHPSPLSVYRGFFGCRHFSKTNELLQKSGKKPIDWKEL | 0 pmol excised per min per mg protein | 0 pmol excised per min per mg protein | – | – | – | – | 5.5 × 10^4 pmol excised per min per mg protein | 8.5 × 10^4 pmol excised per min per mg protein | 0 pmol excised per min per mg protein | 0 pmol excised per min per mg protein | 80
4 | Ser169Ala: human UDG (UNGΔ84) mutant with Ser169 replaced by Ala (protein) MGVFCLGPWGLGRKLRTPGKGPLQLLSRLCGDHLQAIPAKKAPAGQEEPGTPPSSPLSAEQLDRIQRNKAAALLRLAARNVPVGFGESWKKHLSGEFGKPYFIKLMGFVAEERKHYTVYPPPHQVFTWTQMCDIKDVKVVILGQDPYHGPNQAHGLCFSVQRPVPPPPALENIYKELSTDIEDFVHPGHGDLSGWAKQGVLLLNAVLTVRAHQANSHKERGWEQFTDAVVSWLNQNSNGLVFLLWGSYAQKKGSAIDRKRHHVLQTAHPSPLSVYRGFFGCRHFSKTNELLQKSGKKPIDWKEL | 0 pmol excised per min per mg protein | 0 pmol excised per min per mg protein | – | – | – | – | 3.1 × 10^6 pmol excised per min per mg protein | 5.6 × 10^6 pmol excised per min per mg protein | 0 pmol excised per min per mg protein | 0 pmol excised per min per mg protein | 80
5 | Gln144Leu: human UDG (UNGΔ84) mutant with Gln144 replaced by Leu (protein) MGVFCLGPWGLGRKLRTPGKGPLQLLSRLCGDHLQAIPAKKAPAGQEEPGTPPSSPLSAEQLDRIQRNKAAALLRLAARNVPVGFGESWKKHLSGEFGKPYFIKLMGFVAEERKHYTVYPPPHQVFTWTQMCDIKDVKVVILGLDPYHGPNQAHGLCFSVQRPVPPPPSLENIYKELSTDIEDFVHPGHGDLSGWAKQGVLLLNAVLTVRAHQANSHKERGWEQFTDAVVSWLNQNSNGLVFLLWGSYAQKKGSAIDRKRHHVLQTAHPSPLSVYRGFFGCRHFSKTNELLQKSGKKPIDWKEL | 0 pmol excised per min per mg protein | 0 pmol excised per min per mg protein | – | – | – | – | 3.4 × 10^4 pmol excised per min per mg protein | 4.8 × 10^4 pmol excised per min per mg protein | 0 pmol excised per min per mg protein | 0 pmol excised per min per mg protein | 25
6 | Asp145Asn: human UDG (UNGΔ84) mutant with Asp145 replaced by Asn (protein) MGVFCLGPWGLGRKLRTPGKGPLQLLSRLCGDHLQAIPAKKAPAGQEEPGTPPSSPLSAEQLDRIQRNKAAALLRLAARNVPVGFGESWKKHLSGEFGKPYFIKLMGFVAEERKHYTVYPPPHQVFTWTQMCDIKDVKVVILGQNPYHGPNQAHGLCFSVQRPVPPPPSLENIYKELSTDIEDFVHPGHGDLSGWAKQGVLLLNAVLTVRAHQANSHKERGWEQFTDAVVSWLNQNSNGLVFLLWGSYAQKKGSAIDRKRHHVLQTAHPSPLSVYRGFFGCRHFSKTNELLQKSGKKPIDWKEL | 0 pmol excised per min per mg protein | 0 pmol excised per min per mg protein | – | – | – | – | 1.4 × 10^4 pmol excised per min per mg protein | 1.1 × 10^4 pmol excised per min per mg protein | 0 pmol excised per min per mg protein | 0 pmol excised per min per mg protein | 80
